Measurements taken from US20230002757A1 (ZHEJIANG NANOMAB TECHNOLOGY CENTER, published 2023).
Positions count from the first letter of the chain named. Each block holds one binder with its values, some of them ahead of it.

Columns and labels:
[1] = molecular target: T1, mesothelin (MSLN), full length (UniProt Q13421 296-598, limits assumed); assay: ELISA, supernatant
T1 construct: coating antigen of the ELISA; construct not described

MSLN epitope domain 2 = molecular target: T2, MSLN epitope domain 2 (UniProt Q13421 391-486, limits assumed); assay: ELISA, supernatant
T2 construct: domain: domain 2; also called domain 2 of MSLN

MSLN epitope domain 3 = molecular target: T3, MSLN epitope domain 3 (UniProt Q13421 487-598, limits assumed); assay: ELISA, supernatant
T3 construct: domain: domain 3; also called domain 3 of MSLN

MSLN epitope domain 1 = molecular target: T4, MSLN epitope domain 1 (UniProt Q13421 296-390, limits assumed); assay: ELISA, supernatant
T4 construct: domain: domain 1; also called domain 1 of MSLN

[2] = molecular target: T5, EGFR on 293T-EGFR cells (293T cells negative for BCMA expression) (UniProt P00533 25-1210, limits assumed); assay: flow cytometry
T5 construct: whole, on cells; negative control cells; that they carry EGFR is read from the label only

BCMA on RPMI8226 cells = molecular target: T6, BCMA on RPMI8226 cells (UniProt Q02223 1-184, limits assumed); assay: FACS on RPMI8226 cells
T6 construct: whole, on cells
T6 sequence (looked up): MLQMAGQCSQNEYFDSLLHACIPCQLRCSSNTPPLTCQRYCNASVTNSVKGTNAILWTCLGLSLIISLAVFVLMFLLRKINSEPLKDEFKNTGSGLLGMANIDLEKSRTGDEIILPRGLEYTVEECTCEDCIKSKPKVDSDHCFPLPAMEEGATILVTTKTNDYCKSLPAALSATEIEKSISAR

BCMA-Fc = molecular target: T7, BCMA-Fc (human, UniProt Q02223 1-54); assay: ELISA, BCMA-Fc coated 1 ug/mL
T7 construct: coating antigen, 1 ug/mL; also called Fc-conjugated human BCMA; not shown: Fc
T7 sequence (looked up): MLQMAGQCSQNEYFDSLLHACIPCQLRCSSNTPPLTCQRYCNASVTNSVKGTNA

Anti-His = molecular target: T8, Anti-His; assay: ELISA, Anti-His coated 1 ug/mL
T8 construct: ELISA coating control

BCMA-His = molecular target: T9, BCMA-His (human, UniProt Q02223 1-54); assay: ELISA, BCMA-His coated 1 ug/mL
T9 construct: coating antigen, 1 ug/mL; also called His-conjugated human BCMA; not shown: His tag
T9 sequence (looked up): T7 sequence (looked up)

human IgG = molecular target: T10, human IgG; assay: ELISA, human IgG coated 1 ug/mL
T10 construct: ELISA coating control

[3] = molecular target: T5, EGFR on 293T-EGFR cells (293T cells …); assay: FACS on 293T-EGFR cells (BCMA negative)
PD-1 protein [4] = molecular target: T11, PD-1 protein (human, UniProt Q15116 25-167, limits assumed); assay: ELISA, PD-1 coated
T11 construct: also called human PD-1
Protocol: 2 μg/ml of PD-1 protein is coated on 96-well plates overnight for ELISA binding assay. Recombinant VHH-FC proteins are added to the wells and allowed to stand for a period of time, then 1 μg/ml of HRP-conjugated anti-FC antibody is added as detection antibody and the assay reagents are added. The absorbance is read at 450 nm. Binding of nivolumab serves as a positive control and plates coated with BSA are used as the negative control group.

PD-1 protein [5] = molecular target: T11, PD-1 protein; assay: blocking ELISA, PD-1 coated, competitor biotin PD-L1
Protocol: Each well of 96-well microtiter plates is coated with 2 μg/ml of PD-1 protein in PBS and blocked with 1% BSA. […]
The intensity of the developed color is measured at 450 nm. Wells with no added PD-1 and no added VHH-FC are negative and positive controls, respectively.

T2 sequence (Q13421 other isoform, or with tags, fused parts or gaps limits assumed): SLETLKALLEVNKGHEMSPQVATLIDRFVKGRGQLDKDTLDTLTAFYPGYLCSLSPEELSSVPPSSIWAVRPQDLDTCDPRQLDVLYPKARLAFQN
T1 sequence (Q13421 other isoform, or with tags, fused parts or gaps limits assumed): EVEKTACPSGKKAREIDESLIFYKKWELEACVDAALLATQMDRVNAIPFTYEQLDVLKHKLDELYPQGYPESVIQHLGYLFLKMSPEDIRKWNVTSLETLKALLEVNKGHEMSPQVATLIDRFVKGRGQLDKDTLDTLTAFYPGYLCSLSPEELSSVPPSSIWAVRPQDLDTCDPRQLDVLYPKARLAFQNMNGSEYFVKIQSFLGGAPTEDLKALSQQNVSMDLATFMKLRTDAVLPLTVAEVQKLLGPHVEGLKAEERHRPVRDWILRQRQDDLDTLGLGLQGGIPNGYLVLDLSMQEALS
T11 sequence (Q15116 25-167 limits assumed): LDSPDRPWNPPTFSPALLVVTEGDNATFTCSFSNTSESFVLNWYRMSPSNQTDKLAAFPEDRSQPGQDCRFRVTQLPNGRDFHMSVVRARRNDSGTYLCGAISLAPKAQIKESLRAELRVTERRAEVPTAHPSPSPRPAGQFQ
T3 sequence (Q13421 495-606 limits assumed): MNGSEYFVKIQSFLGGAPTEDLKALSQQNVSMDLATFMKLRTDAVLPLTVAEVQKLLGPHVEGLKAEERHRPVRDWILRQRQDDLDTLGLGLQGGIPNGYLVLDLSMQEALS
T4 sequence (Q13421 296-390 limits assumed): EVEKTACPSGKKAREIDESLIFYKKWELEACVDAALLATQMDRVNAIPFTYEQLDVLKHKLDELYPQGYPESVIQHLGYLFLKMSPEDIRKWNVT

B2: NBL501#008 (VHH)
VHH: QVQLVESGGGLVQAGGSLRLSCVASGIVFRLNAMGWFRQAPGRERELVATIASGGWAYYGDTMSGRVTISRDNDKNTLYLEMNSLKPEDSAMYYCSAGGARPHSWGQGTQVTVSS
notes: tested as supernatant in ELISA
binding result (MSLN epitope domain 2): no binding
binding result (MSLN epitope domain 3): no binding

B3: NBL501#011 (VHH)
VHH: QVQLVESGGGLVQAGGSLRLSCAVFGNTGAIHAMAWYRQAPGKQREEVARISFGDGRTVYGDSVKGRFTISGDDAKNTMYLQMNILKAEDTAEYYCNAVFLGIGPTGRFEYEYWGQGTQVTVSS
notes: as for B2
binding result [1]: no binding

B5: NBL501#004 (VHH)
VHH: EVQVVESGGGLVQAGGSLRLSCVPSGSISSIYAMGWYRQALGPERELVAAQTLGGGTYYANPVKGRFTIYRDNDKNTLYLQMNNLKPEDTAMYYCATPGEHWGSSDVTNWGQGTQVTVSS
notes: as for B2
binding result (MSLN epitope domain 2): no binding
binding result (MSLN epitope domain 3): no binding

B7: NBL501#007 (VHH)
VHH: QVQLVESGGGLVQPGGSLTLSCAASGFTFSSYYMSWVRQAPGKGPEWVSIISTGGASTVYTDSVKGRFTASRDNAKNTLYLQMNSLKPEDTALYYCVRGNSRSGLIPRAYWGQGTQVTVSS
notes: as for B2
binding result [1]: no binding

B9: 504#SS13 (Fc fusion, not shown: a dimerising Fc or GST; small tags and cut ends)
VHH: EVQVVESGGGSVQPGGSLRLSCAASGRGFTEHAMGWYRQSPGKEREFVAGISSGGSTYYADSVKGRFTVSRDSAGNTVALQMDSLKPEDTAVYYCSYKRGRYPDGVSTLEYWGQGTQVTVSS
notes: VHH-FC construct from HEK293 cells
OD450 at 0.002 µg/mL (PD-1 protein [4]): 0.03 OD450
OD450 at 0.02 µg/mL (PD-1 protein [4]): 0.03 OD450
OD450 at 0.2 µg/mL (PD-1 protein [4]): 0.03 OD450
OD450 at 2 µg/mL (PD-1 protein [4]): 0.03 OD450
OD450 of PD-L1 bound, antibody at 0.15 µg/mL (PD-1 protein [5]): 3.34 OD450
OD450 of PD-L1 bound, antibody at 0.61 µg/mL (PD-1 protein [5]): 3.33 OD450
OD450 of PD-L1 bound, antibody at 2.42 µg/mL (PD-1 protein [5]): 3.29 OD450
OD450 of PD-L1 bound, antibody at 9.75 µg/mL (PD-1 protein [5]): 3.33 OD450

B12: NBL507-A1L1-P1R2-1D2-(9)-PME207-SEQF_A02 (VHH)
VHH: QVQLVESGGGLVQPGGSLRLSCAASGFTFSSSAMSWARQAPGKGLECVSDIYPDGTSSYADSMKGRFTISRDNTRNTMYLQMNVLKPEDTATYYCVIGRGGYAMGDRRLRGQGTQVTVSS
notes: purified VHH
binding result [2]: no binding
MFI (BCMA on RPMI8226 cells): 1260 MFI
OD450 (BCMA-Fc): 2.35 OD450
OD450 (Anti-His): 0.57 OD450
OD450 (BCMA-His): 2.32 OD450
OD450 (human IgG): 0.02 OD450
MFI [3]: 222 MFI

B13: NBL507-A1L1-P1R2-1B6-(31)-PME207-SEQF_G04 (VHH)
VHH: QVQLVESGGGLVQPGGSLRLSCAASGFTFSPSAMSWARQAPGKGLEWVSGIYSDGSTYYRDSVKGRFTISRDNARNMVYLQMNSLKPEDTAVYYCALGAMREGVYSDLLGQGTQVTVSS
notes: purified VHH
binding result [2]: no binding
MFI (BCMA on RPMI8226 cells): 864 MFI
OD450 (BCMA-Fc): 2.52 OD450
OD450 (Anti-His): 1.96 OD450
OD450 (BCMA-His): 2.25 OD450
OD450 (human IgG): 0.03 OD450
MFI [3]: 216 MFI

B14: NBL501#002 (VHH)
VHH: QVQLVESGGGLVQAGGSLRLSCAASISIRRINAMGWYRQAPGKERELVAVISSPNKTLYADSVKGRFTISKDNYTNTLYLQMNSLKPEDTAMYYCSAWRIGVDTTDYYGQGTQVTVSS
notes: as for B2
binding result (MSLN epitope domain 2): no binding
binding result (MSLN epitope domain 3): no binding

B15: NBL507-A2L1-P1R2-1C1-(273)-PME207-SEQF_E11 (VHH)
VHH: QVQLVESGGGLVHPGGSLRLDCAVSERIASFNVMGWYRQAPGQQREVVATITSVGRTYYADSVKGRFTIAKDNDKNTYLQMNSLKPEDTAVYYCKAVIVGTYDTEYWGQGTLVTVSS
notes: purified VHH
binding result [2]: no binding
MFI (BCMA on RPMI8226 cells): 764 MFI
OD450 (BCMA-Fc): 3.12 OD450
OD450 (Anti-His): 0.71 OD450
OD450 (BCMA-His): 2.28 OD450
OD450 (human IgG): 0.03 OD450
MFI [3]: 222 MFI

Results, then the binder that gave them:

binding result [1]: no binding
B1: NBL501#003 (VHH)
VHH: QVQLVESGGGLVQPGGSLRLSCAASGITLDYYAIGWFRQAPGKEREGVSCISSSGGSTNYADSVKGRFTMSRDNAKNTVYLQMNSLKPEDTAVYYCAADIHCSGYVLFSPSDFGNWGQGTQVTVSS
notes: as for B2

binding result (MSLN epitope domain 1): no binding
binding result (MSLN epitope domain 3): no binding
B4: NBL501#009 (VHH)
VHH: EVQVVESGGGLVQAGGSLRLSCVASGFTFSVAAMRWYRQAPGKQREWVASAFSDGNLHYEDFVKGRFTISRDDAKNTLYLQMDSLKPEDTAVYYCNAGTPSRAYWGQGTQVTVSS
notes: as for B2

binding result [2]: no binding
MFI (BCMA on RPMI8226 cells): 1810 MFI
OD450 (BCMA-Fc): 2.47 OD450
OD450 (Anti-His): 1.79 OD450
OD450 (BCMA-His): 2.27 OD450
OD450 (human IgG): 0.01 OD450
MFI [3]: 219 MFI
B6: NBL507-A1L1-P1R2-1B8-(44)-PME207-SEQF_D06 (VHH)
VHH: QVQLVESGGGLVQPEGSLRLSCAASGSIFSIYAMGWYRQAPGKQRGLVAAITSGGDTFYADSVKGRFTISRDNARNTVYLQMNNLKSEDTAVYDCNGAPWGDHAPLVASWGQGTQVTVSS
notes: purified VHH

binding result [1]: no binding
B8: NBL501#010 (VHH)
VHH: QVKLEESGGGLVQAGGSLRLSCVASGSIFSINAMGWYRRAPGKERELVASISSDGSIYYADSVKGRFTISRDNAKNTLYLQMNSLKPEDTAMYDCAALGVVNVGVRPTLEYIYWGQGTQVTVSS
notes: as for B2

binding result [1]: no binding
B10: NBL501#006 (VHH)
VHH: QVQLVESGGGLVQAGGSLRLSCAASGSADSIPAMGWYRQAPGKEREYLAAISSGTNTYYASSAKGRFAISRNNANNTLYLQMNSLKPEDTAMYYCATCSSYYYCSGPYVRSWGQGTQVTVSS
notes: as for B2

binding result [2]: no binding
MFI (BCMA on RPMI8226 cells): 2550 MFI
OD450 (BCMA-Fc): 2.53 OD450
OD450 (Anti-His): 2.44 OD450
OD450 (BCMA-His): 2.37 OD450
OD450 (human IgG): 0.03 OD450
MFI [3]: 227 MFI
B11: NBL507-A1L1-P1R2-1E2-(10)-PME207-SEQF_B02 (VHH)
VHH: EVQLVESGGGLVQPGGSLRLSCAASGSISSIYAMGWYRQAPGKLRELVAAITTGGSTFYRDSVKGRFTISRDNVANTVYLQMNSLKPEDTAVYHCNGAPWGDIAPVAVSWGQGTQVTVSS
notes: purified VHH

binding result [2]: no binding
MFI (BCMA on RPMI8226 cells): 532 MFI
OD450 (BCMA-Fc): 3.3 OD450
OD450 (Anti-His): 0.98 OD450
OD450 (BCMA-His): 2.11 OD450
OD450 (human IgG): 0.04 OD450
MFI [3]: 222 MFI
B16: NBL507-A2L1-P1R2-1H1-(275)-PME207-SEQF_G11 (VHH)
VHH: B15 VHH with D21A, V24A, A29L, A70F, D74G, N82S, I98T, T101D, Y102V, L112Q
notes: purified VHH

binding result [2]: no binding
MFI (BCMA on RPMI8226 cells): 2420 MFI
OD450 (BCMA-Fc): 2.47 OD450
OD450 (Anti-His): 2.1 OD450
OD450 (BCMA-His): 2.37 OD450
OD450 (human IgG): 0.03 OD450
MFI [3]: 230 MFI
B17: NBL507-A1L1-P1R2-1A1-(1)-PME207-SEQF_A01 (VHH)
VHH: EVQLVESGGGLVQPGGSLRLSCAASGFTFRSSAMSWARQAPGKGLEWVSDIYPDGRTDYADSIKGRFTMSRDNAKNTVYLLMDSLKPEDTAVYHCQVGRYVSGVYYQPRGQGTQVTVSS
notes: purified VHH; also called lAl
